The values below come from patent US20210395354A1 (AMPSOURCE BIOPHARMA SHANGHAI, published 2021).

In test [1] the target is T1, human nerve growth factor (hNGF) (human, UniProt P01138 122-241). The experiment in a line: cell-based or functional assay.
Test [2] deals with T2, human NGF (his tag) (human, UniProt P01138 122-241, limits assumed).
T2 construct: Captured on Ni-NTA sensors in the ForteBio Octet assay; also called hNGF; antigen; not shown: his tag
Nature of the test: BLI (ForteBio Octet), method of example 4. The procedure:
(§1) The binding affinity constants of purified mouse monoclonal antibody #56 and #2 with antigens were determined by the bio film interference technique (fortebio octet Red & QK system, Pall company). […] After the kinetic fitting curve of affinity analysis, the affinity constant was calculated by analyzing the above data.
For orientation: BLI is a label-free optical method that tracks binding on a fibre tip over time.

The target of test [3] is T1, human nerve growth factor (hNGF). The experiment in a line: indirect ELISA on coated hNGF (0.2 µg/ml), detection with HRP anti-mouse IgG, OD 450 nm. The method, then:
Indirect ELISA was used to determine the binding titers of purified mouse antibody #2, #56 and #98 to hNGF. Among them, each pore was coated with 100 μl 0.2 μg/ml hNGF (Corning company) and placed at 4° C. for 16-20 h. The PBS buffer in 96 well plate was sucked off, washed with PBST (pH 7.4, PBS containing 0.05% Tween 20) buffer once, then 200 μL/well PBST/1% skimmed milk powder was added, incubated at room temperature for 1 h and sealed. Remove the blocking solution, wash the plate with PBST buffer for 3 times, add PBST/1% skimmed milk powder to dilute to the appropriate concentration of anti-hngf mouse antibody to be tested, 100 μL/well, incubate at room temperature for 1.5 h. Remove the reaction system, wash the plate with PBST three times, and then use the HRP labeled Sheep anti mouse IgG polyclonal antibody (Jackson Laboratory) diluted with PBST/1% skimmed milk powder (dilution ratio 1:5000) at 50 μL/well as the detection antibody, and incubate at room temperature for 1 h. After 3 times of PBST washing, add 100 μL/well TMB and incubate at room temperature for 10-30 min. Add 50 μL/pore 0.2 M sulfuric acid to stop the reaction.
Background: In an ELISA, binding on a coated surface is turned into a signal by an enzyme label.

In test [4] the target is T2, human NGF (his tag). Nature of the test: BLI (ForteBio Octet), human NGF (his tag) on Ni-NTA sensor. The procedure: as §1

T2 sequence (P01138 122-241 limits assumed): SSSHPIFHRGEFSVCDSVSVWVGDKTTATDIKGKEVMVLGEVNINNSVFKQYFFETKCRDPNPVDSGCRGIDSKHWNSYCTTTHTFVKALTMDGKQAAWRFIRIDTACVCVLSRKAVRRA
T1 sequence (P01138 122-241 limits assumed): as above

B1: humanized antibody AB5C2 (antibody, V domains shown)
VH: QVQLQESGPGLVKPSETLSLTCTVSGFSLTGYGVNWVRQPPGKGLEWLGMIWADGDTDYNSALKSRVTISKDTSKNQFSLKLSSVTAADTARYYCARDSYYYGYNFFDVWGAGTTVTVSS
VL: DIQMTQSPSSLSASVGDRVTITCRASQDISNYLNWYQQKPGKAPKLLIYYTSRLHSGVPSRFSGSGSGTDFTFTISSLQPEDIATYFCQQGNTLPRTFGGGTKVEIK
notes: Humanized from #56 by CDR transplantation
The term Kd denotes the free concentration of one partner at which half of the binding sites on the other are occupied at equilibrium, for simple one-to-one binding. A higher Kd goes with weaker binding. By koff is commonly meant the first-order rate constant of dissociation. A high value points to a short-lived complex. By kon is commonly meant the rate constant with which the complex forms. Read a low kon as slow association. B1: the “IC50 (read off the curve), NGF-dependent TF-1 cell proliferation” value (“IC50 (read off the curve)” for short) in test [1] is roughly 0.4 µg/mL. In the test with human NGF (his tag) [2], this molecule returned a Kd of 0.0013 nM, a koff of 2.16e-06 s⁻¹ and an on-rate constant (kon) of 1.66e+06 M⁻¹ s⁻¹.

B2: humanized antibody AB5C4 (antibody, V domains shown)
VH: QVQLQESGPGLVKPSETLSLTCTVSGFSLTGYGWGWVRQPPGKGLEWIGSIWADGDTYYNPSLKSRVTISVDTSKNQFSLKLSSVTAADTAVYYCARDSYYYGYNFFDVWGQGTMVTVSS
VL: DIQMTQSPSSLSASVGDRVTITCQASQDISNYLNWYQQKPGKAPKLLIYYTSNLESGVPSRFSGSGSGTDFTFTISSLQPEDIATYYCQQGNTLPRTFGGGTKVEIK
notes: as for B1
On to B2, for which, in the test with human NGF (his tag) [2], the dissociation constant (Kd) came out at 0.0153 nM, the koff is 2.23e-05 s⁻¹ and the kon was 1.46e+06 M⁻¹ s⁻¹.

B3: humanized antibody AB5C5 (antibody, V domains shown)
VH: QVQLQESGPGLVKPSETLSLTCTVSGFSLTGYGWGWVRQPPGKGLEWLGSIWADGDTYYNPSLKSRVTISVDTSKNQFSLKLSSVTAADTAVYYCARDSYYYGYNFFDVWGQGTMVTVSS
VL: DIQMTQSPSSLSASVGDRVTITCQASQDISNYLNWYQQKPGKAPKLLIYYTSNLESGVPSRFSGSGSGTDFTFTISSLQPEDIATYFCQQGNTLPRTFGGGTKVEIK
notes: as for B1
In the test with human NGF (his tag) [2], B3 showed a Kd of 0.0089 nM, a koff of 1.59e-05 s⁻¹ and a kon of 1.78e+06 M⁻¹ s⁻¹.

B4: humanized antibody AB5C3 (antibody, V domains shown)
VH: QVQLQESGPGLVKPSETLSLTCTVSGFSLTGYGWGWIRQPPGKGLEWIGSIWADGDTYYNPSLKSRVTISVDTSKNQFSLKLSSVTAADTAVYYCARDSYYYGYNFFDVWGQGTMVTVSS
VL: DIQMTQSPSSLSASVGDRVTITCQASQDISNYLNWYQQKPGKAPKLLIYYTSNLETGVPSRFSGSGSGTDFTFTISSLQPEDIATYYCQQGNTLPRTFGGGTKVEIK
notes: as for B1
For the molecule B4, in the test with human NGF (his tag) [2], the affinity, expressed as Kd, was 0.00755 nM; the koff was 9.87e-06 s⁻¹; the kon worked out at 1.31e+06 M⁻¹ s⁻¹.

B5: mouse monoclonal antibody #2 (antibody, mouse IgG1, V domains shown)
VH: QVQLQQSGPELARPGASVKLSCKASGYTFTDYWMQWVKQRPGQGLEWIGTIYPGDGYTRYIQKFKGRATLTADKSSSTAYMQLNSLASEDSAVYYCARRAAYYTMDYWGQGTSVTVSS
VL: DIVMTQSHKFMSTSVGDRVSITCKASQDVNTAVAWYQQKPGQSPKLLIYWASTRHTGVPDRFTGSGSGTDYILTISSVQAEDLALYYCQQHYSSPWTFGGGTKLEIT
notes: also called Chen 2; antibody secreted by hybridoma A2
One may read the EC50 (read off the curve) as the concentration giving half of the maximal effect. Low values mean higher potency in that assay, high ones lower potency in that assay. With B5, the 50% effective concentration (EC50 (read off the curve)) in test [3] is roughly 0.007 µg/mL. In the test with human NGF (his tag) [4], this molecule showed a Kd of 0.0159 nM, a koff of 2.92e-05 s⁻¹ and an on-rate constant (kon) of 1.83e+06 M⁻¹ s⁻¹.

B6: human mouse chimeric antibody AB5D1 (antibody, V domains shown)
VH: QVQLQQSGPELARPGASVKLSCKASGYTFTDYWMQWVKQRPGQGLEWIGTIYPGDGYTRYIQKFKGRATLTADKSSSTAYMQLNSLASEDSAVYYCARRAAYYTMDYWGQGTSVTVSS
VL: DIVMTQSHKFMSTSVGDRVSITCKASQDVNTAVAWYQQKPGQSPKLLIYWASTRHTGVPDRFTGSGSGTDYILTISSVQAEDLALYYCQQHYSSPWTFGGGTKLEIT
In the test with human NGF (his tag) [2], B6 returned a dissociation constant Kd of 0.0106 nM, a koff of 1.55e-05 s⁻¹ and an on-rate (kon) of 1.46e+06 M⁻¹ s⁻¹.

B7: humanized antibody AB5D6 (antibody, V domains shown)
VH: QVQLQQSGPEVAKPGASVKLSCKASGYTFTDYWMQWVKQRPGQGLEWIGTIYPGDGYTRYIQKFKGRATLTADKSTSTAYMELNSLASEDSAVYYCARRAAYYTMDYWGQGTSVTVSS
VL: DIVMTQSHKFMSTSVGDRVTITCKASQDVNTAVAWYQQKPGQSPKLLIYWASTRHTGVPDRFSGSGSGTDYILTISSVQAEDLALYYCQQHYSSPWTFGGGTKLEIT
notes: Humanized from #2 by surface remodeling
As to B7, in the test with human NGF (his tag) [2], the Kd was 0.0157 nM, the koff was determined as 2.22e-05 s⁻¹ and the kon was 1.41e+06 M⁻¹ s⁻¹.

B8: mouse monoclonal antibody #56 (antibody, mouse IgG1, V domains shown)
VH: QVQLKESGPGLVAPSQSLSITCTVSGFSLTGYGVNWVRQPPGKGLEWLGMIWADGDTDYNSALKSRLSISKDNSKSQVFLKVNNLQTDDTARYYCARDSYYYGYNFFDVWGAGTTVTVSS
VL: DIQMTQTTSSLSASLGDRVTISCRASQDISNYLNWYQQKPEGTLKLLIYYTSRLHSGVPSRFSGSGSGTDYSLTISSLEQEDIATYFCQQGNTLPRTFGGGTKLEIK
notes: also called Chen 56; antibody secreted by hybridoma A56
With B8, the “IC50 (read off the curve)” value in test [1] was roughly 0.4 µg/mL. In the test with human NGF (his tag) [4], the equilibrium dissociation constant (Kd) turned out to be 0.0123 nM, the koff was determined as 8.89e-06 s⁻¹ and the kon worked out at 723000 M⁻¹ s⁻¹.

B9: human mouse chimeric antibody AB5C1 (antibody, V domains shown)
VH: QVQLKESGPGLVAPSQSLSITCTVSGFSLTGYGVNWVRQPPGKGLEWLGMIWADGDTDYNSALKSRLSISKDNSKSQVFLKVNNLQTDDTARYYCARDSYYYGYNFFDVWGAGTTVTVSS
VL: DIQMTQTTSSLSASLGDRVTISCRASQDISNYLNWYQQKPEGTLKLLIYYTSRLHSGVPSRFSGSGSGTDYSLTISSLEQEDIATYFCQQGNTLPRTFGGGTKLEIK
For B9, in test [1], the “IC50 (read off the curve)” value is roughly 0.9 µg/mL. In the test with human NGF (his tag) [2], this molecule gave an equilibrium dissociation constant (Kd) of 0.0299 nM, a koff of 5.4e-05 s⁻¹ and a kon of 1.81e+06 M⁻¹ s⁻¹.

B10: humanized antibody AB5C6 (antibody, V domains shown)
VH: QVQLKESGPGLVAPSETLSITCTVSGFSLTGYGVNWVRQPPGKGLEWLGMIWADGDTDYNSALKSRLTISKDNSKSQVFLKVNNLQTDDTARYYCARDSYYYGYNFFDVWGAGTTVTVSS
VL: DIQMTQSPSSLSASVGDRVTISCRASQDISNYLNWYQQKPEGTLKLLIYYTSRLHSGVPSRFSGSGSGTDYSLTISSLQQEDIATYFCQQGNTLPRTFGGGTKLEIK
notes: Humanized from #56 by surface remodeling
B10: the “IC50 (read off the curve)” value in test [1] is roughly 0.4 µg/mL. Moreover, in the test with human NGF (his tag) [2], the dissociation constant (Kd) came to 0.0102 nM, the koff came out at 1.61e-05 s⁻¹ and the kon stood at 1.59e+06 M⁻¹ s⁻¹.

B11: humanized antibody AB5D2 (antibody, V domains shown)
VH: QVQLVQSGAEVKKPGASVKVSCKASGYTFTDYWMQWVKQRPGQGLEWIGTIYPGDGYTRYIQKFKGRVTMTRDTSTSTVYMELSSLRSEDSAVYYCARRAAYYTMDYWGQGTLVTVSS
VL: DIQMTQSPSSLSASVGDRVTITCKASQDVNTAVAWYQQKPGKAPKLLIYWASTRHTGVPDRFTGSGSGTDYTLTISSLQPEDLALYYCQQHYSSPWTFGGGTKVEIT
notes: Humanized from #2 by CDR transplantation
Regarding B11, in the test with human NGF (his tag) [2], the dissociation constant Kd worked out at 0.00633 nM, the off-rate constant (koff) is 7.94e-06 s⁻¹ and the kon is 1.25e+06 M⁻¹ s⁻¹.

B12: humanized antibody AB5D4 (antibody, V domains shown)
VH: QVQLVQSGAEVKKPGASVKVSCKASGYTFTDYWMHWVKQAPGQGLEWMGIIYPGDGYTSYAQKFQGRVTMTRDTSTSTVYMELSSLRSEDTAVYYCARRAAYYTMDYWGQGTLVTVSS
VL: DIQMTQSPSSLSASVGDRVTITCRASQDVNTALAWYQQKPGKAPKLLLYWASRLETGVPSRFSGSGSGTDYTLTISSLQPEDFATYYCQQHYSSPWTFGGGTKVEIT
notes: as for B11
As for B12, in the test with human NGF (his tag) [2], the affinity, expressed as Kd, was 0.0182 nM; the koff worked out at 3.25e-05 s⁻¹; the on-rate (kon) was determined as 1.78e+06 M⁻¹ s⁻¹.

B13: humanized antibody AB5D5 (antibody, V domains shown)
VH: QVQLVQSGAEVKKPGASVKVSCKASGYTFTDYWMHWVKQAPGQGLEWMGIIYPGDGYTSYIQKFQGRVTMTRDTSTSTVYMELSSLRSEDTAVYYCARRAAYYTMDYWGQGTLVTVSS
VL: DIQMTQSPSSLSASVGDRVTITCRASQDVNTALAWYQQKPGKAPKLLLYWASRLETGVPSRFSGSGSGTDYTLTISSLQPEDLATYYCQQHYSSPWTFGGGTKVEIT
notes: as for B11
In the test with human NGF (his tag) [2], B13 yielded an equilibrium dissociation constant (Kd) of 0.0154 nM, a koff of 1.89e-05 s⁻¹ and an on-rate (kon) of 1.23e+06 M⁻¹ s⁻¹.

B14: humanized antibody AB5D3 (antibody, V domains shown)
VH: QVQLVQSGAEVKKPGASVKVSCKASGYTFTDYWMHWVRQAPGQGLEWMGIIYPGDGYTSYAQKFQGRVTMTRDTSTSTVYMELSSLRSEDTAVYYCARRAAYYTMDYWGQGTLVTVSS
VL: DIQMTQSPSSLSASVGDRVTITCRASQDVNTALAWYQQKPGKAPKLLLYWASRLESGVPSRFSGSGSGTDYTLTISSLQPEDFATYYCQQHYSSPWTFGGGTKVEIT
notes: as for B11
B14: in the test with human NGF (his tag) [2], the equilibrium dissociation constant (Kd) worked out at 0.0129 nM, the off-rate constant (koff) amounted to 1.92e-05 s⁻¹ and the on-rate constant (kon) worked out at 1.49e+06 M⁻¹ s⁻¹.
